Measured values reported in US20110207917A1 (PATRYS, published 2011).

Biological target: T1, CD55 antigen (coated on ELISA plate) (UniProt P08174 35-353, limits assumed)
T1 sequence (looked up): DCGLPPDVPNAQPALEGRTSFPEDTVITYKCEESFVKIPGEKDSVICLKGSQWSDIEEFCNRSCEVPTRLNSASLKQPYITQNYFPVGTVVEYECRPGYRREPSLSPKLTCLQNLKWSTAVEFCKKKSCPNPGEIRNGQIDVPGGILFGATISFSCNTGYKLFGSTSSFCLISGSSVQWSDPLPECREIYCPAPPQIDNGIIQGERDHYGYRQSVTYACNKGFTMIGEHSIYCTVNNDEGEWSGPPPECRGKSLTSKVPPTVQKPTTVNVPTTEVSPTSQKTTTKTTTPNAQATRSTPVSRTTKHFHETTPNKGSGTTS
Experiment: ELISA on coated CD55 antigen (0.5 µg/well)
Procedure: In brief, CD55 antigen (0.5 μg/well) was coated in a volume of 50 μl/well. The primary antibody was incubated at 12 μg/ml (0.6 μg/well). Buffer was pH6.5 and for the dilution buffer used was High salt pH8.0.

B1: SAM-6 antibody (human IgM produced by hybridoma deposited as DSM ACC2903) (antibody, V domains shown)
VH: GGGVVQPGRSLRLSCAASGFTFSSYAMHWVRQAPGKGLEWVAVISYDGSNKYYADSVKGRFTISRDNSKNTLYLQMNSLRAEDTAVYYCARDRLAVAGRPFDYWGQGTLVTVSS
VL: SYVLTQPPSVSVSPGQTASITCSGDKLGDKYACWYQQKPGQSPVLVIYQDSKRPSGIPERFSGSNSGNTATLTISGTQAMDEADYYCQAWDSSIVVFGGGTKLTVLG
notes: Human IgM, lambda light chain, purified from hybridoma supernatant; CDR-H3 was not observed; also called SAM-6 HAB; SAM-6 HAB IgM
  binding result: no binding (tested: 12 µg/ml)
